Columns and labels:
SP6 p.(Ala273Lys) = target: T1, SP6 p.(Ala273Lys) (Homo sapiens, UniProt Q3SY56 1-376, A273K); experiment: SPR; up to 400 nM; data not shown; Biacore 3000 SPR, 10 mM HEPES pH 7.5, 200 mM NaCl, 0.01% surfactant P-20, 25 C, 40 uL/min, protein 6.25-400 nM, DNA on SA chip; details: protein: recombinant; tags: N-terminal His-GST; label: 5'-biotin on forward strand; blunt
T1 sequence: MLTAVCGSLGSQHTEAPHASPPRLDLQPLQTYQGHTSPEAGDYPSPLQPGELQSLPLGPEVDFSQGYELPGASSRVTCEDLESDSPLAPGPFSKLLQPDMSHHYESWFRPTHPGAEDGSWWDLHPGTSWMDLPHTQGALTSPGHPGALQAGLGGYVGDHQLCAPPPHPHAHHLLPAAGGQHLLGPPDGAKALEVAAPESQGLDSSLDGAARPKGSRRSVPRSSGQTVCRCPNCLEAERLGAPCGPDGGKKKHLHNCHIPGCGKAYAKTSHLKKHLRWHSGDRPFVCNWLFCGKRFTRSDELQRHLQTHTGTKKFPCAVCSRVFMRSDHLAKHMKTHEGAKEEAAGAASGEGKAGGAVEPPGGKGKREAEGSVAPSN

SP6 wild type = target: T2, SP6 wild type (Homo sapiens, UniProt Q3SY56 1-376); experiment: as above; details: protein: recombinant; tags: N-terminal His-GST; label: 5'-biotin on forward strand; blunt
T2 sequence: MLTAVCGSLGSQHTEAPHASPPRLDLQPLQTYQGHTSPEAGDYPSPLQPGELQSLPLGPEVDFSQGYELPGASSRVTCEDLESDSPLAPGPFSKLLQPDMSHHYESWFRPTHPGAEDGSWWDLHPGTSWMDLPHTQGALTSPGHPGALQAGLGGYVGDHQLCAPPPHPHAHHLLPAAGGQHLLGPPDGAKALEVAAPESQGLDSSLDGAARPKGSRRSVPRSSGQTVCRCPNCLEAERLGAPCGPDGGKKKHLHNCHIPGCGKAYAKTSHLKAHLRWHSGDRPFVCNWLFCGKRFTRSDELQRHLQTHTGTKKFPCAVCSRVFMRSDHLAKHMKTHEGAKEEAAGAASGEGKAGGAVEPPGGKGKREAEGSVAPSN

B1: NKX2-1 promoter probe (SP3 site control) (dsDNA)
DNA 1: GGGATCCGGGACAGCCTCCGGGAGGCAGTCGATCCCCTAC
DNA 2: GTAGGGGATCGACTGCCTCCCGGAGGCTGTCCCGGATCCC
- binding result (SP6 p.(Ala273Lys)): no binding
- binding result (SP6 wild type): no binding
